Results taken from the supplement of paper PMC11780869.

Each sequence was assayed on Bacillus subtilis (assay: cleaved RNA product abundance (RNA/gDNA barcode ratio) relative to median wild-type variant (ratio to wild type); higher = more accumulation of the downstream cleavage product). Conditions: experiment (reporter, strain, medium): exp 8a: truncated aprE reporter, strain BJT201 with 2% xylose (RNase J1 expressed); cleavage site: glnRA (positions -5 to +31 mutated).
Procedure, shortened: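 In LB at 37°C, B. subtilis cultures went from OD600 0.0003 to 0.3. Their chromosomes held barcoded reporter mRNAs, truncated aprE or tetM, with RNase Y cleavage-site windows mutagenized via oligos at a 9% error rate. Cleaved RNA, chosen by gel, was reverse transcribed and barcode-sequenced alongside genomic DNA barcodes with UMI collapsing, giving a per-construct RNA:gDNA ratio scaled to the median construct with the unmutated site. This scaled ratio is termed cleaved product abundance.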

Compared with “CGACATGTCCCGCTTCTTTCATTAATCCGTTAGCAACTGTTTTACTATATACAATTACCTTTTAAGAGGAGGAAT”, “CGACATGTCCCGCTTCTTTCATTAATCCGTTAGCAACTGTTTTACTATATACAATTACTTTTTAAGAGGAGGAAT” is higher in “cleaved RNA product abundance” value: 0.613 for the first, 0.712 for the second.

First: CGACATGTCCCGCTTCTTTCATTAATCCGTTAGCAACTGTTTTACTATATACATATACCTTTTAAGAGGAGGAAT
Second: CGACATGTCCCGCTTCTTTCATTAATCCGTTAGCAACTGTTTTACTATATACATCTACCTTTTAAGAGGAGGAAT
The “cleaved RNA product abundance” value of the first is higher: 1.11 for the first, 0.506 for the second.

Going from “CGACATGTCCCGCTTCTTTCATTAATCCGTTAGCAACTGTTTTACTATATACATGTACCTTTTAAGAGGAGGAAT” to “CGACATGTCCCGCTTCTTTCATTAATCCGTTAGCAACTGTTTTACTATATACATTCACCTTTTAAGAGGAGGAAT”, the “cleaved RNA product abundance” value falls from 0.471 to 0.4.

Compared with “CGACATGTCCCGCTTCTTTCATTAATCCGTTAGCAACTGTTTTACTATATACATTTAACTTTTAAGAGGAGGAAT”, “CGACATGTCCCGCTTCTTTCATTAATCCGTTAGCAACTGTTTTACTATATACATTTACATTTTAAGAGGAGGAAT” is higher in “cleaved RNA product abundance” value: 0.539 for the first, 0.688 for the second.

Going from “CGACATGTCCCGCTTCTTTCATTAATCCGTTAGCAACTGTTTTACTATATACATTTACCCTTTAAGAGGAGGAAT” to “CGACATGTCCCGCTTCTTTCATTAATCCGTTAGCAACTGTTTTACTATATACATTTACCTTTTAAGAGGAGGAAT”, the “cleaved RNA product abundance” value falls from 0.921 to 0.619.

Going from “CGACATGTCCCGCTTCTTTCATTAATCCGTTAGCAACTGTTTTACTATATACATTTACGTTTTAAGAGGAGGAAT” to “CGACATGTCCCGCTTCTTTCATTAATCCGTTAGCAACTGTTTTACTATATACATTTACTTTTTAAGAGGAGGAAT”, the “cleaved RNA product abundance” value falls from 0.77 to 0.621.

Compared with “CGACATGTCCCGCTTCTTTCATTAATCCGTTAGCAACTGTTTTACTATATACATTTATCTTTTAAGAGGAGGAAT”, “CGACATGTCCCGCTTCTTTCATTAATCCGTTAGCAACTGTTTTACTATATACATTTTCCTTTTAAGAGGAGGAAT” is lower in “cleaved RNA product abundance” value: 0.588 for the first, 0.458 for the second.

First: CGACATGTCCCGCTTCTTTCATTAATCCGTTAGCAACTGTTTTACTATATACGTTTACCTTTTAAGAGGAGGAAT
Second: CGACATGTCCCGCTTCTTTCATTAATCCGTTAGCAACTGTTTTACTATATATATTTACCTTTTAAGAGGAGGAAT
The “cleaved RNA product abundance” value of the first is lower: 0.455 for the first, 0.708 for the second.

Going from “CGACATGTCCCGCTTCTTTCATTAATCCGTTAGCAACTGTTTTACTATATTCATTTACCTTTTAAGAGGAGGAAT” to “CGACATGTCCCGCTTCTTTCATTAATCCGTTAGCAACTGTTTTACTCTATACATTTACCTTTTAAGAGGAGGAAT”, the “cleaved RNA product abundance” value rises from 0.189 to 0.597.

Compared with “CGACATGTCCCGCTTCTTTCATTAATCCGTTAGCAACTGTTTTATTATATACATTTACCTTTTAAGAGGAGGAAT”, “CGACATGTCCCGCTTCTTTCATTAATCCGTTAGCAACTGTTTTCCTAAATACATTTACCTTTTAAGAGGAGGAAT” is lower in “cleaved RNA product abundance” value: 0.698 for the first, 0.23 for the second.

First: CGACATGTCCCGCTTCTTTCATTAATCCGTTAGCAACTGTTTTCCTATAAACATTTACCTTTTAAGAGGAGGAAT
Second: CGACATGTCCCGCTTCTTTCATTAATCCGTTAGCAACTGTTTTCCTATAGACATTTACCTTTTAAGAGGAGGAAT
The “cleaved RNA product abundance” value of the first is higher: 0.526 for the first, 0.36 for the second.

Compared with “CGACATGTCCCGCTTCTTTCATTAATCCGTTAGCAACTGTTTTCCTATATACATATACCTTTTAAGAGGAGGAAT”, “CGACATGTCCCGCTTCTTTCATTAATCCGTTAGCAACTGTTTTCCTATATACATTAACCTTTTAAGAGGAGGAAT” is higher in “cleaved RNA product abundance” value: 0.353 for the first, 0.43 for the second.

First: CGACATGTCCCGCTTCTTTCATTAATCCGTTAGCAACTGTTTTCCTATATACATTCACCTTTTAAGAGGAGGAAT
Second: CGACATGTCCCGCTTCTTTCATTAATCCGTTAGCAACTGTTTTCCTATATACATTTACATTTTAAGAGGAGGAAT
The “cleaved RNA product abundance” value of the first is lower: 0.346 for the first, 0.549 for the second.

First: CGACATGTCCCGCTTCTTTCATTAATCCGTTAGCAACTGTTTTCCTATATACATTTACCTTTTAAGAGGAGGAAT
Second: CGACATGTCCCGCTTCTTTCATTAATCCGTTAGCAACTGTTTTCCTATATACATTTACTTTTTAAGAGGAGGAAT
The “cleaved RNA product abundance” value of the first is higher: 0.539 for the first, 0.31 for the second.

Going from “CGACATGTCCCGCTTCTTTCATTAATCCGTTAGCAACTGTTTTCCTATATACATTTATCTTTTAAGAGGAGGAAT” to “CGACATGTCCCGCTTCTTTCATTAATCCGTTAGCAACTGTTTTCCTATATACGTTTACCTTTTAAGAGGAGGAAT”, the “cleaved RNA product abundance” value falls from 0.55 to 0.26.

First: CGACATGTCCCGCTTCTTTCATTAATCCGTTAGCAACTGTTTTCCTATATATATTTACCTTTTAAGAGGAGGAAT
Second: CGACATGTCCCGCTTCTTTCATTAATCCGTTAGCAACTGTTTTGAAATATACATTTACCTTTTAAGAGGAGGAAT
The “cleaved RNA product abundance” value of the first is higher: 0.505 for the first, 0.462 for the second.

First: CGACATGTCCCGCTTCTTTCATTAATCCGTTAGCAACTGTTTTGATAAATACATTTACCTTTTAAGAGGAGGAAT
Second: CGACATGTCCCGCTTCTTTCATTAATCCGTTAGCAACTGTTTTGATATAAACATTTACCTTTTAAGAGGAGGAAT
The “cleaved RNA product abundance” value of the first is lower: 0.384 for the first, 0.399 for the second.

Compared with “CGACATGTCCCGCTTCTTTCATTAATCCGTTAGCAACTGTTTTGATATATAAATTTACCTTTTAAGAGGAGGAAT”, “CGACATGTCCCGCTTCTTTCATTAATCCGTTAGCAACTGTTTTGATATATACACTTACCTTTTAAGAGGAGGAAT” is lower in “cleaved RNA product abundance” value: 0.397 for the first, 0.313 for the second.

First: CGACATGTCCCGCTTCTTTCATTAATCCGTTAGCAACTGTTTTGATATATACATATACCTTTTAAGAGGAGGAAT
Second: CGACATGTCCCGCTTCTTTCATTAATCCGTTAGCAACTGTTTTGATATATACATCTACCTTTTAAGAGGAGGAAT
The “cleaved RNA product abundance” value of the first is higher: 0.572 for the first, 0.44 for the second.

Compared with “CGACATGTCCCGCTTCTTTCATTAATCCGTTAGCAACTGTTTTGATATATACATTAACCTTTTAAGAGGAGGAAT”, “CGACATGTCCCGCTTCTTTCATTAATCCGTTAGCAACTGTTTTGATATATACATTTACATTTTAAGAGGAGGAAT” is lower in “cleaved RNA product abundance” value: 0.832 for the first, 0.372 for the second.

First: CGACATGTCCCGCTTCTTTCATTAATCCGTTAGCAACTGTTTTGATATATACATTTACCTTTTAAGAGGAGGAAT
Second: CGACATGTCCCGCTTCTTTCATTAATCCGTTAGCAACTGTTTTGATATATACATTTATCTTTTAAGAGGAGGAAT
The “cleaved RNA product abundance” value of the first is lower: 0.503 for the first, 0.509 for the second.

Going from “CGACATGTCCCGCTTCTTTCATTAATCCGTTAGCAACTGTTTTGATATATACATTTGCCTTTTAAGAGGAGGAAT” to “CGACATGTCCCGCTTCTTTCATTAATCCGTTAGCAACTGTTTTGATATATACATTTTCCTTTTAAGAGGAGGAAT”, the “cleaved RNA product abundance” value falls from 0.378 to 0.376.

Compared with “CGACATGTCCCGCTTCTTTCATTAATCCGTTAGCAACTGTTTTGATATATATATTTACCTTTTAAGAGGAGGAAT”, “CGACATGTCCCGCTTCTTTCATTAATCCGTTAGCAACTGTTTTGATATTTACATTTACCTTTTAAGAGGAGGAAT” is lower in “cleaved RNA product abundance” value: 0.766 for the first, 0.18 for the second.

Going from “CGACATGTCCCGCTTCTTTCATTAATCCGTTAGCAACTGTTTTGCAATAAACATTTACCTTTTAAGAGGAGGAAT” to “CGACATGTCCCGCTTCTTTCATTAATCCGTTAGCAACTGTTTTGCAATATACATTAACCTTTTAAGAGGAGGAAT”, the “cleaved RNA product abundance” value rises from 0.232 to 0.691.

Going from “CGACATGTCCCGCTTCTTTCATTAATCCGTTAGCAACTGTTTTGCAATATACATTTACCATTTAAGAGGAGGAAT” to “CGACATGTCCCGCTTCTTTCATTAATCCGTTAGCAACTGTTTTGCAATATACATTTACCCTTTAAGAGGAGGAAT”, the “cleaved RNA product abundance” value falls from 0.562 to 0.405.

First: CGACATGTCCCGCTTCTTTCATTAATCCGTTAGCAACTGTTTTGCAATATACATTTACCTTTTAAGAGGAGGAAT
Second: CGACATGTCCCGCTTCTTTCATTAATCCGTTAGCAACTGTTTTGCAATATACATTTAGCTTTTAAGAGGAGGAAT
The “cleaved RNA product abundance” value of the first is lower: 0.436 for the first, 0.72 for the second.

Going from “CGACATGTCCCGCTTCTTTCATTAATCCGTTAGCAACTGTTTTGCAATATACATTTATCTTTTAAGAGGAGGAAT” to “CGACATGTCCCGCTTCTTTCATTAATCCGTTAGCAACTGTTTTGCAATATACATTTCCCTTTTAAGAGGAGGAAT”, the “cleaved RNA product abundance” value rises from 0.505 to 0.589.

Compared with “CGACATGTCCCGCTTCTTTCATTAATCCGTTAGCAACTGTTTTGCAATATACCTTTACCTTTTAAGAGGAGGAAT”, “CGACATGTCCCGCTTCTTTCATTAATCCGTTAGCAACTGTTTTGCAATATAGATTTACCTTTTAAGAGGAGGAAT” is higher in “cleaved RNA product abundance” value: 0.29 for the first, 0.599 for the second.

First: CGACATGTCCCGCTTCTTTCATTAATCCGTTAGCAACTGTTTTGCAATATATATTTACCTTTTAAGAGGAGGAAT
Second: CGACATGTCCCGCTTCTTTCATTAATCCGTTAGCAACTGTTTTGCAATATCCATTTACCTTTTAAGAGGAGGAAT
The “cleaved RNA product abundance” value of the first is higher: 0.379 for the first, 0.156 for the second.

Compared with “CGACATGTCCCGCTTCTTTCATTAATCCGTTAGCAACTGTTTTGCCACGTACATTTACCTTTTAAGAGGAGGAAT”, “CGACATGTCCCGCTTCTTTCATTAATCCGTTAGCAACTGTTTTGCCAGATACATTTACCTTTTAAGAGGAGGAAT” is higher in “cleaved RNA product abundance” value: 0.0527 for the first, 0.286 for the second.

With “CGACATGTCCCGCTTCTTTCATTAATCCGTTAGCAACTGTTTTGCCATATACACTTACCTTTTAAGAGGAGGAAT” the “cleaved RNA product abundance” value was 0.161.
